Results from the supplement of paper PMC9732359.
± gives the uncertainty stated by the source.

Test: protein stability index of a GFP-peptide fusion (yeast GPS) (PSI 1-4); higher = more stable; sorted into four equal gates, so the index is relative within each strain
Method in brief: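 The protein stability index of a peptide was calculated by multiplying its read frequency in each gate by that gate's number and adding the products. The peptides were tiled 17-residue stretches of yeast proteins, fused downstream of GFP on a Cherry-expressing plasmid and carried in yeast as a pooled library. Mid-log cultures in leucine-free medium were sorted into four equal gates by GFP/Cherry ratio, and each gate's plasmids were PCR-amplified and Illumina-sequenced.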

Sequence	protein stability index (doa10∆)	protein stability index (pdr5∆)	protein stability index (san1∆)	protein stability index (ubr1∆)
SAGDDGKVRLWKATYSN [YGL100W/SEH1]	2.74 ± 0.061	2.89 ± 0.089	2.74 ± 0.06	3 ± 0.058
GIREKRAREKAEAEAEK [RPL13A]		3.5 ± 0.25		
TAPSSQRRVLLSAPLSK [RPL26A]	2.45 ± 0.045	2.31 ± 0.053	2.31 ± 0.055	2.18 ± 0.036
NLYMLVTTCVYLACKVE [SSN8]			1.62 ± 0.25	
SGGSVNLYHVTEDGWIY [PRE2]	2.85 ± 0.12	3.16 ± 0.15	3 ± 0.087	3.04 ± 0.089
MYNGKDRAQNSYQPMYQ [SSN3]	3.31 ± 0.21	2.48 ± 0.23		3.2 ± 0.063
PLLYNSLCTVWKPNPSY [SRB5]	1.99 ± 0.11	1.68 ± 0.062	2.21 ± 0.11	2.13 ± 0.1
LDDITDSNTTEILTSVD [SIR4]	3.26 ± 0.066	3.18 ± 0.072	2.94 ± 0.069	3.08 ± 0.065
ANFGEILEDFRVIKDFK [YMR153W/NUP53]	3.07 ± 0.14	3.4 ± 0.16	3.37 ± 0.068	3.28 ± 0.096
QPWQMDTNNEADLMALE [SNF12]	2.59 ± 0.068	3.25 ± 0.076	2.86 ± 0.054	3.2 ± 0.036
SSLASQDVDFYKNLDRG [RRP6]	1.31 ± 0.084	1.37 ± 0.067		1.64 ± 0.088
DPQQVFDERIKFANQLH [RPN3]	1.68 ± 0.09	1.97 ± 0.12	1.41 ± 0.14	1.33 ± 0.075
LEELAETFQDTFSGALG [FAS2]	2.95 ± 0.065	3.06 ± 0.077	3.21 ± 0.05	3.31 ± 0.067
LKNPEIFQRVGIKPPKG [RPT4]	2.13 ± 0.12	2.18 ± 0.22	2.45 ± 0.12	2.31 ± 0.18
DNTSHDEQDDDNVNSTT [BRN1]	3 ± 0.073	3.19 ± 0.088	3.17 ± 0.1	3.23 ± 0.062
DSTDNENSGKEMDEKSY [LIN1]		3.26 ± 0.14	2.88 ± 0.29	3.49 ± 0.14
KATLELLKLIEPYVAYG [RPL7A]	2.28 ± 0.078	3.24 ± 0.083	3.3 ± 0.034	2.79 ± 0.047
IYDKKDHKYVCTFSMEP [SRB8]	2.85 ± 0.076	2.99 ± 0.11	2.78 ± 0.06	3 ± 0.069
VGVNKDSYLILDTLPSE [RPT5]	3.15 ± 0.069	3.18 ± 0.08	3.19 ± 0.078	3.14 ± 0.032
QINKAQILENYNALFQQ [YJL039C/NUP192]	2.81 ± 0.068	3.12 ± 0.058	2.73 ± 0.065	3.03 ± 0.047
AKEVYKIHQQLLFKARL [GAL11]		3.18 ± 0.18		2.84 ± 0.25
LNESRSQHKKILEELDF [SMC3]	3.38 ± 0.12	3.26 ± 0.098	3.01 ± 0.069	3.06 ± 0.082
SVNKNKRQAYAVSEKAG [RPL4A]		1.69 ± 0.17		3.29 ± 0.13
GRIRTTREDVSPHYNSQ [SSN3]	1.81 ± 0.067	2.02 ± 0.091	1.89 ± 0.07	1.73 ± 0.11
TKRVEKPQLKFKSPIDN [RRP6]	2.88 ± 0.052	3.03 ± 0.061	3.02 ± 0.039	3.137 ± 0.03
STVKGSVDLEKLAFGLT [TAF14]	3.58 ± 0.13	3.45 ± 0.091	3.61 ± 0.057	3.67 ± 0.072
EDMETQASDPSKKKKNI [RPC53]	3.27 ± 0.14	3.44 ± 0.19	3.24 ± 0.16	3.33 ± 0.15

Sequence	protein stability index (doa10∆)	protein stability index (pdr5∆)	protein stability index (san1∆)	protein stability index (ubr1∆)
NSVRNSLLLAHFFSKSC [NUT1]	1.74 ± 0.05	1.28 ± 0.041	1.19 ± 0.078	1.18 ± 0.035
YDLLISTLTTISGNPPL [SRB5]	2.43 ± 0.052	2.3 ± 0.045	1.77 ± 0.07	2.46 ± 0.04
IVGQKNLNRAFNGDQVI [DIS3]	3.12 ± 0.078	2.83 ± 0.087	2.76 ± 0.057	2.98 ± 0.078
DTPEGEACGLVKNLALM [RET1]	2.14 ± 0.098	2.01 ± 0.13	3.21 ± 0.1	1.71 ± 0.28
FHAEPSGTFYRYNAKAI [PUP2]	2.79 ± 0.15	1.81 ± 0.13	2.87 ± 0.059	1.67 ± 0.077
EKFSSFIESIVVDFKNK [SNF12]	2.69 ± 0.065	2.84 ± 0.078	2.74 ± 0.081	2.77 ± 0.061
ILSGFHNAGPVAGAGAA [RPP1B]	3.01 ± 0.072	2.97 ± 0.061	2.74 ± 0.07	2.65 ± 0.099
GIWNDLGSGSNVDVCVM [PUP1]	2.69 ± 0.27			
HSLAYLLENFANFKTSK [RRP6]	2.68 ± 0.22	2.05 ± 0.14	2.81 ± 0.19	2.53 ± 0.17
EFFNPEIFHLLQPLEEG [SIN4]	1.88 ± 0.079	1.84 ± 0.064	1.59 ± 0.086	2.07 ± 0.056
NSTHLLPLQPIEIDYTV [SNF12]	2.34 ± 0.044	2.27 ± 0.044	2.27 ± 0.051	2.21 ± 0.036
MESIGSDILTAEKMRGN [RRP4]	3.1 ± 0.13	3.43 ± 0.12	3.14 ± 0.093	3.34 ± 0.092
VIKRLEASTVPWGDYLQ [BRR2]	1.63 ± 0.15	1.24 ± 0.11	1.54 ± 0.11	1.35 ± 0.11
NTFGSSSLFNNSTNSNT [YJL041W/NSP1]	2.42 ± 0.06	2.44 ± 0.053	3.12 ± 0.041	2.5 ± 0.05
VGKTVKQLIMESQEKYM [NSL1]	3.17 ± 0.097	3.18 ± 0.073	2.8 ± 0.067	3.34 ± 0.055
HHWLLDKLSGCYAPRPS [RPS4A]	2.21 ± 0.063	1.94 ± 0.062	1.89 ± 0.083	1.42 ± 0.045
RRIKEAEENLKKRIRLP [YIL149C/MLP2]	2.26 ± 0.08	2.23 ± 0.067	1.88 ± 0.12	2.02 ± 0.07
EGDIQVLKSYGAAPYAA [RPT1]	2.84 ± 0.095	2.83 ± 0.12	3.05 ± 0.082	2.82 ± 0.063
GPSAMRLSRCIRDNKLV [RPC82]	1.94 ± 0.14	2.23 ± 0.13	1.58 ± 0.15	2.15 ± 0.099
VNLPGGILRRKSESDEL [RRP4]	3.31 ± 0.15	3.29 ± 0.15	2.88 ± 0.1	3.29 ± 0.14
TNSNNTPLQSQLNLNNL [PGD1]	3.01 ± 0.071	3.01 ± 0.059	3 ± 0.043	3.05 ± 0.042
PWVVYLQILAMLLLNIF [YMR129W/POM152]	1.19 ± 0.1	1.96 ± 0.072	1.18 ± 0.16	1.16 ± 0.08
ADVHFLDCDGGFIDASC [RRP45]	3.12 ± 0.09	2.9 ± 0.098	3.14 ± 0.055	2.9 ± 0.054
DIVQYHLELYTSQYGTP [PRE3]	2.1 ± 0.063	1.74 ± 0.058	1.77 ± 0.07	2 ± 0.042
LVADGVFYAELNEFFTR [RPS3]	3.2 ± 0.12	3.1 ± 0.12	3.08 ± 0.077	3.28 ± 0.078
TNENGETDDNIETVMTQ [SRB4]	2.79 ± 0.099	2.53 ± 0.076	2.44 ± 0.089	2.5 ± 0.074
LDTQLITLLPSSLKESS [SNF12]	2.89 ± 0.24			
